According to article PMC9543391, “ERp57 chaperon protein protects neuronal cells from Aβ‐induced toxicity” (Journal of Neurochemistry, 2022):

Molecular target: ERp57 (human recombinant PDIA3) (human) (UniProt P30101)
Assay: SPR; ERp57 immobilised by amine coupling on a COOH5 sensorchip (about 4000 RU), SensiQ Pioneer; non-aggregated Aβ25-35 injected for 240 s at 30 μl/min at 15.6 μM to 1.0 mM; 25°C; HBSP buffer (20 mM HEPES pH 7.4, 150 mM NaCl, 0.005% Tween-20); global kinetic fits with one or two binding sites (Qdat 4.0)

Sequence of ERp57 (human recombinant PDIA3) (human) (P30101 25-505): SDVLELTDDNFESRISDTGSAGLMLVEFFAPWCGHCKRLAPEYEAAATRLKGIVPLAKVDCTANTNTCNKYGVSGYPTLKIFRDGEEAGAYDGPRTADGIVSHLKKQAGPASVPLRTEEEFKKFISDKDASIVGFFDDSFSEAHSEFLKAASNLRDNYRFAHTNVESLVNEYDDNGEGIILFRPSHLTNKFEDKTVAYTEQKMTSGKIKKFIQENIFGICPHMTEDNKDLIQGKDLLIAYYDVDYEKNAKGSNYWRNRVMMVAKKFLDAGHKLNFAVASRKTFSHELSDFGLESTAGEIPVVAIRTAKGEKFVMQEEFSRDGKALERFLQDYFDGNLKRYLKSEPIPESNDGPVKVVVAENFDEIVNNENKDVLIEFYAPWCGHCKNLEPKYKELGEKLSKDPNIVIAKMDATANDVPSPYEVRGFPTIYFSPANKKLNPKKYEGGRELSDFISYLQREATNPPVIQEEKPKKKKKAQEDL

Substance “Amyloid beta peptide fragment 25-35 (Aβ25-35)” has a KD1 (fit with two binding sites, high-affinity site) of 34 µM and a KD2 (fit with two binding sites, low-affinity site) of 3.3 mM.
